Measured values: the RNAGym collection of RNA variant scans (doi:10.7554/elife.80360)

B1: HDV Ribozyme (parent)
chain: GGCCGGCAUGGUCCCAGCCUCCUCGCUGGCGCCGGCUGGGCAACAUUCCGAGGGGACCGUCCCCUCGGUAAUGGCGAAUGGGACCCA

Variants of: B1
Assay: self-cleavage, relative activity (ratio to wild type); higher = more cleavage; co-transcriptional

Variant | self-cleavage
GGCGGGCAUGGUCCCAGCCUCCUCGCUGGCGCCGGCUGGGCAACAUUCCGAGGGGACCGUCCCCUCGGUAAUGGCGAAUAGGACCCA | 0.0203
GGCCGGCAUGGGCCCAGCCUCCUCGCUGGCGCCGGCUGGGCAACAUUCCGAGGGGACCGUCCCCUCGGUAAUGCCGAAUGGGACCCA | 0.151
GGACGGCAUGGUCCCAGCCUCCUCGCUGGCGCCGGCUGGGCAACCUUCCGAGGGGACCGUCCCCUCGGUAAUGGCGAAUGGGACCCA | 0.0482
GGCCGGCAUGGUCCCAGCCUCCUCGCUGGCGCCGGCUGGGCAACAUUCCGUGGGGACCGUCCCCUCGGUAAUGGCGAAUGGGACCCC | 0.959
GGCCGGCAUGGUCCCAGCCUCCUCGCUGGCGCCGGCUGGGCAACAUUCCGAGGGGACCGUCCCCUCGGUAAUGUUGAAUGGGACCCA | 0.151
GGCCGGCAUGGUCCCAGCCUCCUCGGUGGCGCCGGCUGGGCAACAUUCCGAGGGGACCGUCCCCUCGGUAAUAGCGAAUGGGACCCA | 0.57
GGCCGGCAUGGUCCCAGCGUGCUCGCUGGCGCCGGCUGGGCAACAUUCCGAGGGGACCGUCCCCUCGGUAAUGGCGAAUGGGACCCA | 0.0326
GGCCGGCAUGGUCCCAGCCUCCUCGCUGGCGCCGGCUGGGCAACAUUCCGAGGGGACCGUCCCCUCGGUAAUGGCGAAUGGGGCCUA | 1.08
AGCCGGCAUGGUCCCAGCCUCCUCGCUGGCGCCGGCUGGGCAACAUUUCGAGGGGACCGUCCCCUCGGUAAUGGCGAAUGGGACCCA | 0
GGCCGGCAUGGUCCCAGCCUCCUCGCUGGCGCGGGCUGGGCAACAUUCCGAGGGGACCGUCCCCUCGGUAAUGGCGAAUGAGACCCA | 0.128
GGCCGGCAUGGUCCCAGCCUCCUCGCUGGCGCCGGUUGGGCAACAUUCCGAGGGGACUGUCCCCUCGGUAAUGGCGAAUGGGACCCA | 0.866
GGCCGGCAUGGUCCCAGCCUCCACGCUGGCGCCGGCUGGGCAACAUUCCGAGGGGACCGUCCCCUCGGUAAUGGCGGAUGGGACCCA | 1.03
GGCCGGCAUGGUCCCAGCCUCCCCGCUGGCGCCGGCUGGGCAACAUUCCGAGGGGACCGUCCCCUUGGUAAUGGCGAAUGGGACCCA | 0.95
GGCCGGCAUGGGCCCAGCCUCCUCGCUGGCGCCGGCUGGGCAACAUUCCGAUGGGACCGUCCCCUCGGUAAUGGCGAAUGGGACCCA | 0.617
GGCCGGCAUGGUCCCAGCCUCCUCGCUGGCCCCGGCUGGGCAACAUUCCGAGGGGACCGUCCCCUCGGUAAUGGCGAAUGUGACCCA | 0.086
GGCCGGCAUGGUCCCAGCCUCCUCGCUGGCGCCGGCUGGGCAACAUUCCGAGGGGACCGUCCCUUCGGUAAUUGCGAAUGGGACCCA | 0.345
GGCCGGCAUGGUCUCAGCCUCCUCGCUGGCGCCGGCUGGGCAACAUUCCGAGGGGACGGUCCCCUCGGUAAUGGCGAAUGGGACCCA | 1.17
GGCCGGCAUGGUGCCAGCCUCCUCGCUGGCGCCGGCUGGGCAACAUUCCGAGGGGACCGUCCCCUCGGUACUGGCGAAUGGGACCCA | 0
GGCCGGCAUGGUCCCAGCCUCCUUGCUGGCGCCGGCUGGGCAACAUUCCGAGGGGAACGUCCCCUCGGUAAUGGCGAAUGGGACCCA | 0.831
GGCCGGUAUGGUCCCAGCCUCCUCUCUGGCGCCGGCUGGGCAACAUUCCGAGGGGACCGUCCCCUCGGUAAUGGCGAAUGGGACCCA | 0.203
GGCCGGCAUGGUCCCAGCCUCCUCGCAGGCGCCGGCUGGGCAACAUUCCGAGGGUACCGUCCCCUCGGUAAUGGCGAAUGGGACCCA | 1.14
GGCCGGCAUGGUCCCAGCCUCCUAGCUGACGCCGGCUGGGCAACAUUCCGAGGGGACCGUCCCCUCGGUAAUGGCGAAUGGGACCCA | 0.106

Variant | self-cleavage
GGCCGGCCUGGUCCCAGCCUCCUCGCUGGCACCGGCUGGGCAACAUUCCGAGGGGACCGUCCCCUCGGUAAUGGCGAAUGGGACCCA | 0.162
GGCCCGCAUGGUCCCAGCCUCCUCGCUGGCGCCGGCUGGGCAACAUUCCGAGGGGACCGUCCCCUCGGGAAUGGCGAAUGGGACCCA | 0.111
GGCCGGCAUGGUCCCAGCCUCCUCGCUGGCGCCGGCUGGGCAACAUUCCGAGGGGACCGUCCCCUCGGUAAUGGCGAAUGGGACCAG | 0.804
GGCCGGCCUGGUCCCAGCCUCCUCGCUGGCGCCGGCUGGGCAACAUUCUGAGGGGACCGUCCCCUCGGUAAUGGCGAAUGGGACCCA | 0.567
GGCCGCCAUGGUCCCAGCCUCCUCGCUGGCGCCGGCUGGGCAACAUUCCGAGGGGACCGUCCCCUCGGUAAUGGCGAAUGGGACCUA | 0.403
GGCCGGCAUGGUCCCAGUCUCCUCGCUGGCGCCGGCCGGGCAACAUUCCGAGGGGACCGUCCCCUCGGUAAUGGCGAAUGGGACCCA | 0.554
GGCCGGCAUGGUCCCAGCCUCCUCGCUGGCGCCGGCUGGGCAAAAUUCAGAGGGGACCGUCCCCUCGGUAAUGGCGAAUGGGACCCA | 0.554
GGCCGGCAUGGUCCCAGCCUCCUCGCUGGCGCCGGAUGGGCAACAUGCCGAGGGGACCGUCCCCUCGGUAAUGGCGAAUGGGACCCA | 0.208
GGCGGGCAUGGUCCCAGCCUCCUCGCUGGCGCCGGCUGGGCAACAUUCCGAGGGGACCGUCCCCUCGGUAGUGGCGAAUGGGACCCA | 0.277
GGCCGGCAUGGUCCCAGCCUCCUGGCUGGCGCCGGCUGGGCAACAUUCCGAGGGGAACGUCCCCUCGGUAAUGGCGAAUGGGACCCA | 0.0432
UGCCGGCAUGGUCCCAGCCUCCUCGCUGGCGCCGGCUGGGCAACAUUCCGACGGGACCGUCCCCUCGGUAAUGGCGAAUGGGACCCA | 0.332
GGCCGGCGUGGUCCCAGCCUCCUCGCUGGCGCCGGCUGGGCAACAUUCCGAGGGGACCGUCCCCUCGGUAAUGGCGAAUGGGCCCCA | 0.262
GGCCGGCAUGGUCCCAGCCUCCUCGCUGGCGCCGGCUGGGCAACAUUCCGAGGGGACAGUCCCCUCGGUAAUGGCGAAUGGAACCCA | 0.614
GGCCGGCAUGGUCCCAGCCUCCUCGCUGGCGCCGGCUGGGCAACAUUCCGAGGGGACCGUCCCCACGGUAAUGCCGAAUGGGACCCA | 0.225
GGGCGGCAUGGUCUCAGCCUCCUCGCUGGCGCCGGCUGGGCAACAUUCCGAGGGGACCGUCCCCUCGGUAAUGGCGAAUGGGACCCA | 0.817
GGCCGGCAUGGUCCCAGCCUCCUCGCUGGCGCCGGCUGGGCAACAUUCCGGGGGGACCGCCCCCUCGGUAAUGGCGAAUGGGACCCA | 0.931
GGCCGGCAUGGUCCCAGCCCCCUCGCUGGCGCUGGCUGGGCAACAUUCCGAGGGGACCGUCCCCUCGGUAAUGGCGAAUGGGACCCA | 0.0536
GGCCGGCAUGGUCCUAGCCUCCUCGCUGGCGCCGGCUGGGCAACAUUCCGGGGGGACCGUCCCCUCGGUAAUGGCGAAUGGGACCCA | 1.07
GGCCGGCAUGGUCCCAGCCUCCUCGCUGGCGCCGGCUGGGCAACAUUCCGUGGGGAUCGUCCCCUCGGUAAUGGCGAAUGGGACCCA | 0.801
GGCCGGCAUGGUCCCAGCCUCCUCGCUGGCGCCGGCUGGGCAUCAUUCCGAGGGGACCGUCCCCUCGGUAAUGGCGAAUGAGACCCA | 0.148
GGCCGGCAUGGUCCCAGCUUCCUCGCUGGCGCCGGCUGGGCAACAUUCCGAGGGGACCGUCCCCUCGGUAAUGGCCAAUGGGACCCA | 0.277
GGCCGGCAUGGUCCCAGCCUCCUCGCUGGCGCCGGCUGGGCAACAUUCCGAGCGGACCGUCCCCUCGGAAAUGGCGAAUGGGACCCA | 0.77

Variant | self-cleavage
GGCCGGCAUGGUCCCAACCUCCUCGCUGGCGCCGGCUGGGCAACAUUCCCAGGGGACCGUCCCCUCGGUAAUGGCGAAUGGGACCCA | 0.502
GGCCGGCAUGGUCCCAGCCUCCUCGCUUGUGCCGGCUGGGCAACAUUCCGAGGGGACCGUCCCCUCGGUAAUGGCGAAUGGGACCCA | 0
GGCCGGCAUGGUCCCAGCCUCCUCGCUGGCGCCGGCUGAGCAACAUUCCGAGGGGACCGUCCCCUCGGUAAUGGCGAAUGGGAUCCA | 0.321
GGCCGGCAUGGUCCCAGCCUCCUCGCUGGCGCCGGCUGGGCCACAGUCCGAGGGGACCGUCCCCUCGGUAAUGGCGAAUGGGACCCA | 0.166
GGCCGGCAUGGUCCCAGCCUCCUCGCUGGCGCCGGCUGGGCAACAUUCCGAGGGGACCGUCCGCCCGGUAAUGGCGAAUGGGACCCA | 0.151
GGCCGGCAUGGUCGUAGCCUCCUCGCUGGCGCCGGCUGGGCAACAUUCCGAGGGGACCGUCCCCUCGGUAAUGGCGAAUGGGACCCA | 0.111
GGCAGGGAUGGUCCCAGCCUCCUCGCUGGCGCCGGCUGGGCAACAUUCCGAGGGGACCGUCCCCUCGGUAAUGGCGAAUGGGACCCA | 0.104
GGCCGGCAUGGUCCCAGCCUCCUCGCUGGCGCCGGCAGGGCAACAUUCCGAGGGGACCGUCCCCUCGGUAAUGACGAAUGGGACCCA | 0.166
GGCCGACAUGGUCACAGCCUCCUCGCUGGCGCCGGCUGGGCAACAUUCCGAGGGGACCGUCCCCUCGGUAAUGGCGAAUGGGACCCA | 0.237
GGCUGGCAUGGUCCCAGCCUCCUCGCUGGCGCCGGCUGGGCAACAUUCCGAGGGGACCGUCCCCUCGGUAAUGGCGAAUGGGACCAA | 0.875
GGCCGGCAUGGUCCCAGCCUCCUCGCUGGCGCUGGCUGGGCAACAUUCCGAGGGGACCGUCCCCUCGGUAAUGGCGAAGGGGACCCA | 0.429
GGCCGGCAUGGUCCCAGCCUCCUCGCCGGCGCCAGCUGGGCAACAUUCCGAGGGGACCGUCCCCUCGGUAAUGGCGAAUGGGACCCA | 0.289
GGGCGGCAUGGUCCCAGCCUACUCGCUGGCGCCGGCUGGGCAACAUUCCGAGGGGACCGUCCCCUCGGUAAUGGCGAAUGGGACCCA | 0
GGCCGGCAUGGUCCCAGCCUCCUCGCUGGCGCCGGCUGCGCAACAUUCCGAGGGGACCGUCCCCUCGGCAAUGGCGAAUGGGACCCA | 0.401
GGCCGGCAUGGUCCCAGCCUCCUCGCUGGCGCCGGCUGGGCAACAUUCCGAAGGGACCGUCCCCUCGGUAAUGGCGAACGGGACCCA | 0.514
GGCCGGCAAGGUCCCAGCCUCCUCGCUGGAGCCGGCUGGGCAACAUUCCGAGGGGACCGUCCCCUCGGUAAUGGCGAAUGGGACCCA | 0.732
GGCCGGCAUGGUCCCAGCCUCCUCGCUGGCGCCGACUGGGCAACAUUCCGAGGGGACCGUCCCCUCCGUAAUGGCGAAUGGGACCCA | 0.564
GGCCGGCAUGGUCCCAGCCUCCUCGCUGGCGCCGGCUGGGCAACAUUCCCAGGGGACCCUCCCCUCGGUAAUGGCGAAUGGGACCCA | 1.16
GGCCGGCAUGGUCCCAGCCUCCUCGCUGGCGCCGGCUGGGCAACAUUCCGAGAGGACCGUACCCUCGGUAAUGGCGAAUGGGACCCA | 0.987
GGCCGGCAUGGUCGCAGCCUCCUCGCUGGCGCCGGCUGGGCAACAUUCCGAGGGGACCGUCCCCUCGGUAAUGGCGAAUGGGGCCCA | 0.268
